These results are taken from patent US20240150744A1, “ACYL ACTIVATING ENZYME AND A TRANSGENIC CELL, TISSUE, AND ORGANISM COMPRISING SAME” (YEDA RESEARCH AND DEVELOPMENT CO. LTD., priority 2021, published 2024).

The assay is described as follows: AAE enzyme assay (acyl-CoA synthetase assay) of purified recombinant HuAAE proteins with an array of substrates. Format: biochemical. The settings on record: purified recombinant enzyme from E. coli, UPLC-MS/MS peak area (FIG. 6); for activity towards butyric acid (formation of butyryl CoA): substrate butyric acid. The method, then:
FIG. 6 includes vertical bar graphs showing recombinant enzyme assays of purified H. umbraculigerum acyl activating enzyme (HuAAE) proteins produced in Escherichia coli cells. Peak area is shown. Various alkyl (short-and medium-chain fatty acids) and aromatic (cinnamic and coumaric acids) substrates were used in the enzyme assays.
All AAE genes from H. umbraculigerum were individually cloned into the pET28b vector and expressed in E. coli BL21 (DE3) cells. Bacterial cells were grown in LB medium at 37° C. When cultures reached Absorbance 600=0.6, protein expression was induced with 200 μM of isopropyl-1-thio-β-d-galactopyranoside (IPTG) at 15° C., for 24 h. Bacterial cells were lysed by sonication in 50 mM Tris-HCl pH 7.5, 500 mM NaCl, 1 mM PMSF, 10% glycerol and protease inhibitor cocktail (Sigma Aldrich). An aliquot of whole-cell extract was kept for further analysis. Soluble protein was purified on Ni-NTA agarose beads (Adar Biotech) and eluted with 300 mM imidazole in buffer containing 50 mM NaH2PO4 pH-7.5 and 300 mM NaCl. The whole-cell extract, and the eluted fractions were analyzed by SDS-PAGE stained with InstatBlue.
Acyl-CoA synthetase assays were performed in a 20 μl reaction mix that contained 0.1 μg recombinant AAE, 50 mM HEPES pH 9, 8 mM ATP, 10 mM MgCl2, 0.5 mM CoA and 4 mM sodium hexanoate for 10 min at 40° C. Reactions were terminated with 2 μl of 1 M HCl and stored on ice until analysis. After centrifugation at 15 000 g for 5 min at 4° C., the samples were diluted 1:100 in water and analyzed by UPLC-MS/MS (Stout et al., 2012). injections were performed on a UPLC (Waters) connected to a Triple Quad detector (TQ-S, Waters) in multiple reaction monitoring (MRM) mode. The chromatographic separation was achieved using a similar column as previously described. The mobile phase consisted of an aqueous buffer pH 7.0 (10 mM Ammonium Acetate, 5 mM NH4HCO2, phase A) and acetonitrile (phase B). The flow rate was 0.3 ml min^−1, and the column temperature was kept at 25° C. Compounds were analyzed using a 15 min multistep gradient method: initial conditions were 1% B raised to 35% B until 10.5 min, and then raised to 100% B until 11 min, held at 100% B for 1 min, decreased to 1% B until 12.5 min, and held at 1% B until 15 min for re-equilibration of the system. The instrument was operated in positive mode with a capillary voltage of 3.0 kV, and a cone voltage of 50 V. Metabolite identity was confirmed with authentic standards (Sigma Aldrich). Two different transitions were used for analysis of: acetyl-CoA (810.52>303.30, 27.0V; 810.52>428.25, 24.0V); butyryl-CoA (838.58>331.30, 28.0 V; […]); hexanoyl-CoA (866.65>359.40, 28.0 V; 866.65 >428.25, 26.0 V); octanoyl-CoA (894.65>387.55, 30.0 V; 894.65>428.25, 28.0 V); coumaroyl-CoA (914.59>407.37, 30.0 V; 914.59>428.25, 28.0 V); cinnamoyl-CoA (898.59>391.37, 30.0 V; 898.59>428.25, 28.0 V).
Next, the inventors individually recombinantly expressed six of the eleven AAEs, each in E. coli, purified respective proteins, and examined their activity using array of substrates (acetic acid, butyric acid, hexanoic acid, octanoic acid, cinnamic acid and coumaric acid).

B1: HuAAE4: H. umbraculigerum acyl activating enzyme, recombinantly expressed in E. coli and purified; great homology to CsAAE1 (protein)
chain: MVYKSLNSISISDIVNLGISPETATQLHQKLTEIIQIYGFDAPQTWTQISTRILHPDLPFCFHQMMYYGCYVDFGPDPPAWSPDPKDAKLTNIGSLLERRGKEFLGPSYKDPISSYSALQEFSALNLEVFWKTILDEMNITFSVPPKRILVDDLSKESQLLHPGGRWLPGAYVNPARNCLSLSSKRRLSDIAVIWRDEGNDDMPVNKMTFQQLRSEVWLVAYALDTLGVEKGSAIAIDMPMDVKSVVIYLAIVLAGYVVVSIADSFAAGEISTRLVLSKAKAIFTQDLIIRGDRSHPLYSRVVDAQSPLAIVIPTRGSSFSIKLRDGDISWHDFLERANTYRNVEFVAVERPVEAFSNILFSSGTTGEPKAIPWTLATPFKAGADAWCHMDVHKGDVVAWPTNLGWMMGPWLIYASLLNGGSLALYNGSPLTSGFAKFVQDAKVTLLGVIPSIVRAWRTNNSTAGFDWSTIRCFGSTGEASNTDECLWLMGRAHYKPVIEYCGGTEIGGGFITGSLLQPQCLSAFSTPSLGCKLLILGEDGIPIPQNAPGIGELALNPLMFGASSTLLNANHYDVYFKGMPSWNGKVLRRHGDVFERTSKGYYRAHGRADDTMNLGGIKVSSVEIERVCNSIDDRILETAAIGVTPSGGGPERLVIVVAFKDGSGSKPDLIKLKVTLNSALQKNLNPLFKVSDVVPFPSLPRTATNKVMRRVLRQQLTQIGQNSKL
For B1, the “activity towards butyric acid (formation of butyryl CoA)” value is listed as “efficiently produced butyryl CoA”.

B2: HuAAE2: H. umbraculigerum acyl activating enzyme, recombinantly expressed in E. coli and purified (protein)
chain: MDALRKPNSANSSPLTPIGFLERAAVVFANSPSIVYNNLIYTWSDTFHRCLRLASSISRLAIRKGDVVSVLAPNIPAIYELHFGITMTGAIINTINTRLDARTISILLCHSESKLVFVDYQLTRLIREAVSLMPDACVPPQLVLIVDDGHNLSLLSDQFINTYEAMVETGDPGFNWVRPDSDWDPLTLNYTSGTTSSPKGVVNSHRGSFIVAFDSLLEWHVPKQPIMLWTLPMFHANGWSFVWGMAAVGGTNVCLRKFDATIIYDTIRNHHVTHMCGAPVVLNMLSEGKPLEHTVHIMTAGAPPPAAVLLRTESLGFEVTHGFGMTETGGLVVSCSWKKEWNRLPVTEKARLKARQGVRTLGMTEVDIVDPESGVSVTRDGLTQGELVLRGGSIMLGYLKDPETTNKSVKNGWFYTGDVAVMHPDGYLEIKDRSKDVIISGGENISSVEVESILYQHPAINEAAVVGRPDEFWGESPCAFVSLKDDNGKVAVPTADEIMKFCKGKLPGYMVPKSVVFKKDLPKTSTGKIQKYVLRKLAKDLGFAVKSRI
For B2, the “activity towards butyric acid (formation of butyryl CoA)” value is on record as “efficiently produced butyryl CoA”.

B3: HuAAE3: H. umbraculigerum acyl activating enzyme, recombinantly expressed in E. coli and purified (protein)
chain: MTEEEKNKAESMGIKTYAWSDFLHLGSKNPSELQTPKATDICTIMYTSGTSGDPKGVILTHENATTNIRGVDLFMEQFEDKMTVDDVYISFLPLAHILDRMIEEYFFRSGASVGFYHGDINALKEDLAELKPTFLAGVPRVLEKIHEGVLKGLEEVNPRRRKIFSILYNHKLKYMKAGYKHKYASPLADLLAFRKVKNRLGGRIRLMVSGGAPLSTEIEEFMRVTSCAFVAQGYGLTETCGLATLGFPDEMCMIGTVGSPFVYTELRLEEVSDMGYDPLANPPRGEICVKGKTPFAGYYKNPELTNEVMKDGWFHTGDIGEMQPNGVLKIIDRKKHLIKLSQGEYIALEYLEKVYCITPILEDIWVYGDSFKSSLVAVAVPNKENAEKWADQKGLKVSYSELCTLTQFRDYIQSELKSTAERNKLRGFEHIKAIIVEPRTFEGDQELLTATMKKRRNKLLNRYKEGIDNLYKNLAANKR
Take B3: the “activity against acetic acid (formation of acetyl CoA)” value (substrate acetic acid) is reported as “great activity”.

B4: HuAAE6: H. umbraculigerum acyl activating enzyme, recombinantly expressed in E. coli and purified; similar to long-chain acyl-CoA synthetases (protein)
chain: MSVYTVKVEDSRAASGETPSAGPVYRCIYAKDALMELPPGYESPWDFFSESVKRNPKNPALGRRQVIDGKAGGYSWLSYQEAYNSALRIASAIRSRSVNPGDRCGIYGPNCPEWIISMEACNSNGITYVPLYDTLGANAVEYIINHAEISLVFVQENKLSAILSCLPNCSSNLKTIVSFGKFSESQKNEAMEHGVDCFSWEEFSSMGNLEDELPAKNKTDICTIMYTSGTTGEPKGVVLSNRAFMSEVLSMHELLIETDKPGTEEDTYFSFLPLAHIFDQIMETYFIYSGASIGFWQGDIRYLIEDLLVLQPTIFCGVPRVYDRIYTGIMAKISTGGAIRKALFDFAYNYKLRNLEKGIQQDKSAPLLDKLVFDKIKQGFGGRVRLMLSGAAPLPKHVEEFLRVTCCTVLSQGYGLTESCGGCFTSIANVYSMIGTVGVPMTTIEARLESVPEMGYDALSSVPCGEICLRGNTLFSGYHKRDDLTDAVLVDGWFHTGDIGEWQADGAMKIIDRKKNIFKLSQGEYVAVESIESTYSRCPLVTSIWVYGNSFESFLVAVVVPDRVAVEEFAAKNNESGDYASLCKNPNVRKYVLEELNAEAQCNKLRGFEMLKAVHLDPVPFDFERDLITPTFKLKRQQLLKYYKDCVEQLYAEAKTSKK
As for B4, the “activity towards cinnamic acid (formation of cinnamoyl CoA)” value (substrate cinnamic acid) is on record as “reacted”. Also, the “activity towards coumaric acid (formation of coumaroyl CoA)” value (substrate coumaric acid) is reported as “reacted”. The “activity towards hexanoic acid” value (substrate hexanoic acid) was “very high activity”. The “activity towards octanoic acid” value (substrate octanoic acid) is “very high activity”.
